Positions count from the first letter of the chain named. Names may count otherwise.
Assays:
[1] = biological target: K184R, L185P CaMnSODc (Candida albicans)
[2] = biological target: K184R, L185P CaMnSODc (Candida albicans); remark: listed apart in the source
[3] = biological target: K184R, L185P CaMnSODc (Candida albicans); remark: listed apart in the source
[4] = biological target: K184R, L185P CaMnSODc (Candida albicans); assay: SEC; HPLC-SEC (TSK gel G2000SW), as-isolated proteins, 10 µM to 200 nM with respect to monomer, 10 mM potassium phosphate pH 6.7; Kd of the step dimer to monomers, from area integrals of the elution peaks
[5] = biological target: K184R, L185P CaMnSODc (Candida albicans); assay: crystal structure; hanging-drop vapor diffusion at 4°C, protein 7 mg/mL; methylated K182R, A183P ScMnSOD in 0.1 M tri-ammonium citrate pH 7, 20% PEG 3,350; unmodified K184R, L185P CaMnSODc in 2 M ammonium sulfate
[6] = biological target: wild-type manganese superoxide dismutase from Candida albicans cytosol (Candida albicans); assay: SEC; HPLC-SEC (TSK gel G2000SW), as-isolated proteins, 10 µM to 200 nM with respect to monomer, 10 mM potassium phosphate pH 6.7; Kd of the step dimer to monomers, from area integrals of the elution peaks
[7] = biological target: the molecule itself; assay: as above
[8] = biological target: the molecule itself; assay: crystal structure; hanging-drop vapor diffusion at 4°C, protein 7 mg/mL; methylated K182R, A183P ScMnSOD in 0.1 M tri-ammonium citrate pH 7, 20% PEG 3,350; unmodified K184R, L185P CaMnSODc in 2 M ammonium sulfate

## K184R, L185P CaMnSODc (enzyme)
[1]
  rate constant of O2^- dismutation by pulse radiolysis at 1 µM to 2.2 µM enzyme: 9.9e+08 M⁻¹ s⁻¹
[2]
  pK (the pH at which the SOD activity drops by 50%), pulse radiolysis: 8 pH
[3]
  SOD activity (pulse radiolysis) after heating at 41°C (% activity lost): 70
[4]
  Kd: 2000 nM
  stoichiometry N: 2
[5]
  stoichiometry N: 4

## wild-type manganese superoxide dismutase from Candida albicans cytosol (enzyme)
[6]
  stoichiometry N: 2

B1: wild-type manganese superoxide dismutase from Saccharomyces cerevisiae mitochondria (enzyme, S. cerevisiae, UniProt P00447 27-233, looked up)
chain: KVTLPDLKWDFGALEPYISGQINELHYTKHHQTYVNGFNTAVDQFQELSDLLAKEPSPANARKMIAIQQNIKFHGGGFTNHCLFWENLAPESQGGGEPPTGALAKAIDEQFGSLDELIKLTNTKLAGVQGSGWAFIVKNLSNGGKLDVVQTYNQDTVTGPLVPLVAIDAWEHAYYLQYQNKKADYFKAIWNVVNWKEASRRFDAGKI
notes: Manganese superoxide dismutase of S. cerevisiae mitochondria (ScMnSOD), expressed from a 2-kb genomic BamHI fragment containing the gene; As isolated, 0.70 Mn per monomer; also called ScMnSOD; WT ScMnSOD; source: S. cerevisiae sod2Δ strain (EG110), overexpressed from YEp352-ScMnSOD, purified
[7]
  stoichiometry N: 4

B2: methylated K182R, A183P ScMnSOD (enzyme, S. cerevisiae, UniProt P00447 27-233, looked up)
chain: B1 chain with K182R, A183P
modifications: all free amino groups of the lysine residues and the N-terminus methylated (reductive methylation, confirmed by mass spectrometry)
notes: Manganese superoxide dismutase of S. cerevisiae mitochondria (ScMnSOD) with K182R and A183P; The form that was crystallised; 0.71 Mn per monomer; theoretical mass of the methylated protein 23,589 Da; also called methylated RP-mutant ScMnSOD; source: S. cerevisiae sod2Δ strain (EG110), overexpressed, purified, then reductive methylation
[8]
  stoichiometry N: 4

B3: K182R, A183P ScMnSOD (enzyme, S. cerevisiae, UniProt P00447 27-233, looked up)
chain: B1 chain with K182R, A183P
notes: Manganese superoxide dismutase of S. cerevisiae mitochondria (ScMnSOD) with K182R and A183P; Unmethylated form used for HPLC-SEC; as isolated, 0.71 Mn per monomer; also called RP-mutant ScMnSOD; as-isolated K182R, A183P ScMnSOD; source: S. cerevisiae sod2Δ strain (EG110), overexpressed from YEp352-ScMnSOD (mutant), purified
[7]
  stoichiometry N: 4
